According to the supplement of paper PMC9170038:

System: MS2 coat protein
Assay: apparent KD of MS2 coat protein; designed switch direction (-1 OFF switch, 1 ON switch): 1; higher = weaker reporter binding
Outline: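 Designed RNA switches sharing common flanks were transcribed on Illumina chips by stalled E. coli RNA polymerase. They were titrated with SNAP-549-labelled MS2 coat protein, from 0.7 or 1.5 nM doubling to 3 µM, in Tris-HCl pH 7.5 buffer with KCl, MgCl2, BSA, DTT, tRNA and Tween-20. Titrations ran without input, with 200 uM small-molecule ligand, or with an oligonucleotide input. The apparent KD of each design is the median over its clusters, after curve-fitting of normalised cluster fluorescence.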

[1] = input ligand: microRNA oligo, concentration not stated
[2] = Eterna round: R95, input ligand: FMN 200 uM
[3] = Eterna round: R95, input ligand: microRNA oligo, concentration not stated
[4] = Eterna round: R95, input ligand: none

Sequence: AUUAUUUAUGCAGGAUAUGAUUAACAUGAGGAUCACCCAUGUGGUGUUGUGAGUAAGGAGAGUGAUCAGAAGGGCAUUAUUUUU [JMF's solution 45] (Eterna round: R96, puzzle: Same State NG 2)
- apparent KD of MS2 coat protein (input ligand: FMN 200 uM): 634 nM
- apparent KD of MS2 coat protein [1]: 214 nM
- apparent KD of MS2 coat protein (input ligand: none): 355 nM

Sequence: GUUAUACAUGAGGAUCACCCAUGUCAAUGUAGUCGAGGAUAUGGGCAGCUAUGAGGCGUACUAGAAGGCGAAGAGG [JL-ss1-3.11 ViennaUCT mod] (puzzle: Same State 1)
- apparent KD of MS2 coat protein [2]: 81.6 nM
- apparent KD of MS2 coat protein [3]: 234 nM
- apparent KD of MS2 coat protein [4]: 197 nM

Sequence: AGUCCAGCGAAAGCUGGACAAAAGCAUGUACAUGAGGAUCACCCAUGUUCAUGUGCAAGCUUUUUGCUCGUCUUAAA [JL mod - D95 - 4] (puzzle: Sensor for hsa-mir-208a)
- apparent KD of MS2 coat protein [2]: 49.2 nM
- apparent KD of MS2 coat protein [3]: 9.36 nM
- apparent KD of MS2 coat protein [4]: 58.9 nM

Sequence: AGAUCAUGACGAGGAUAUGGUACAUGAGGAUCACCCAUGUAUGUACCACGACGGAAACGUCGAAUCCAGAAGGCGUCGUGGUCA [Mat - Same State NG 2 - JL mod - D22] (Eterna round: R96, puzzle: Same State NG 2)
- apparent KD of MS2 coat protein (input ligand: FMN 200 uM): 27.7 nM
- apparent KD of MS2 coat protein [1]: 115 nM
- apparent KD of MS2 coat protein (input ligand: none): 167 nM

Sequence: GCGAUAUGAUGUUACAUGAGGAUCACCCAUGUAGCGAUAGCUAAGGAUAUUUGAAAGGGAGGAGAAGAGAAGGUAGGAUCACGC [AK SSNG3-V2-22.2] (Eterna round: R96, puzzle: Same State NG 3)
- apparent KD of MS2 coat protein (input ligand: FMN 200 uM): 24.6 nM
- apparent KD of MS2 coat protein [1]: 18.6 nM
- apparent KD of MS2 coat protein (input ligand: none): 20.3 nM

Sequence: AGUCCUGAAAAGAAAAUAAUAAGUGAUGUACAUGAGGAUCACCCAUGUCAUGUACAAGUUCUAUGCUCGUCAUAUAA [Sensorship 24 - Jieux - Sensor for hsa-mir-208a] (puzzle: Sensor for hsa-mir-208a)
- apparent KD of MS2 coat protein [2]: 106 nM
- apparent KD of MS2 coat protein [3]: 32.2 nM
- apparent KD of MS2 coat protein [4]: 98.1 nM

Sequence: AGACAUGAGGAUCACCCAUGUAUACACUGUAUCAGUGUAACAUAGGAUAUCCACCGCCAUGCUGUGGAGAAGGAUGAAACGGGC [Matearen] (Eterna round: R96, puzzle: Same State NG 3)
- apparent KD of MS2 coat protein (input ligand: FMN 200 uM): 175 nM
- apparent KD of MS2 coat protein [1]: 111 nM
- apparent KD of MS2 coat protein (input ligand: none): 99.5 nM

Sequence: UGAACCUUCACAGGAUAUCAUGCGAAAAUUGCGUGAGAAGGGUGGAUGUGGUGUUCAUAGUUGCACAUGAGGAUCACCCAUGUA [SameState NG1 #51] (Eterna round: R96, puzzle: Same State NG 1)
- apparent KD of MS2 coat protein (input ligand: FMN 200 uM): 115 nM
- apparent KD of MS2 coat protein [1]: 124 nM
- apparent KD of MS2 coat protein (input ligand: none): 237 nM

Sequence: UUUACUUUCAUAGGAUAUCAUGCGAAAAUUGCGUGAGAAGGGUGCACACUGUCUUUCUCGGAGUACAUGAGGAUCACCCAUGUG [SameState NG1 #67] (Eterna round: R96, puzzle: Same State NG 1)
- apparent KD of MS2 coat protein (input ligand: FMN 200 uM): 45.6 nM
- apparent KD of MS2 coat protein [1]: 36.8 nM
- apparent KD of MS2 coat protein (input ligand: none): 44.3 nM

Sequence: GUUACAUGAGGAUCACCCAUGUAUGUGUGGGAGUAAGUGUCUUAGGAUAUCUAUCAUUUGAUUUAAGAGAAGGAAGAUUGUUGU [JMF's solution 94] (Eterna round: R96, puzzle: Same State NG 3)
- apparent KD of MS2 coat protein (input ligand: FMN 200 uM): 116 nM
- apparent KD of MS2 coat protein [1]: 96.1 nM
- apparent KD of MS2 coat protein (input ligand: none): 115 nM

Sequence: ACAUGAGACAGAGGAUAUGUUGUACCUACAUGUGACAUGAGGAUCACCCAUGUGGUAAGUAUGAUACAGAAGGCUGAGAUAUGU [Equivalance 64 - Jieux - Same State NG 2] (Eterna round: R96, puzzle: Same State NG 2)
- apparent KD of MS2 coat protein (input ligand: FMN 200 uM): 15 nM
- apparent KD of MS2 coat protein [1]: 18.3 nM
- apparent KD of MS2 coat protein (input ligand: none): 24.2 nM

Sequence: AACCAGAGAAAACAACUCUGACAUGAGGAUCACCCAUGUACACAGGAUAUCAGCCCGAAAAGGGCUGAGAAGGGUGGCCGAGUG [Beveat] (Eterna round: R96, puzzle: Same State NG 3)
- apparent KD of MS2 coat protein (input ligand: FMN 200 uM): 574 nM
- apparent KD of MS2 coat protein [1]: 29.2 nM
- apparent KD of MS2 coat protein (input ligand: none): 33.9 nM

Sequence: ACAAGCUUUUUAGGAAGUGAAGGGAGGGAACAUGAGGAUCACCCAUGUAAGUGGAAUGAAGAAGGAGCACGUCUUAU [JR_SHM208A_Sub097] (puzzle: Sensor for hsa-mir-208a)
- apparent KD of MS2 coat protein [2]: 32.7 nM
- apparent KD of MS2 coat protein [3]: 26.6 nM
- apparent KD of MS2 coat protein [4]: 43.1 nM

Sequence: AACGGUCGACAAGGAUAUGGACGGACAGGUUUGCCUGUGCGGCUCACAUGAGGAUCACCCAUGUUCUAGAAGGUGUCACCAAGA [Tiinor] (Eterna round: R96, puzzle: Same State NG 2)
- apparent KD of MS2 coat protein (input ligand: FMN 200 uM): 36.9 nM
- apparent KD of MS2 coat protein [1]: 141 nM
- apparent KD of MS2 coat protein (input ligand: none): 259 nM

Sequence: CCAGGACAUGAGGAUCACCCAUGUGCUUAAUAUGGAGAAUCUCAGGAUAUCAUGAGGAUCACCCAUGAGAAGGGAGAUCCGAGG (Eterna round: R96, puzzle: Same State NG 3)
- apparent KD of MS2 coat protein (input ligand: FMN 200 uM): 144 nM
- apparent KD of MS2 coat protein [1]: 118 nM
- apparent KD of MS2 coat protein (input ligand: none): 152 nM

Sequence: UAUUCAUUCAGAGGAUAUUGUUUAUCUCUAUUUCAAGAAGGCUGAUUUUACUACUUACUUAUGAAACAUGAGGAUCACCCAUGU [JR_SSNG1_Sub020] (Eterna round: R96, puzzle: Same State NG 1)
- apparent KD of MS2 coat protein [1]: 18.7 nM

Sequence: GGUGCAAUUAACGCCUACAUGAGGAUCACCCAUGUAUGUAGGCAGGAUAUCGUUUGCAAAGCAAACGAGAAGGGCUAUAGUACC [Mat - Same State NG 3 - JL Mod - D43] (Eterna round: R96, puzzle: Same State NG 3)
- apparent KD of MS2 coat protein (input ligand: FMN 200 uM): 66.9 nM
- apparent KD of MS2 coat protein [1]: 256 nM
- apparent KD of MS2 coat protein (input ligand: none): 188 nM

Sequence: AUUAAACAUGAGGAUCACCCAUGUCAACAAAGUCGAGGAUAUGGGCAUAUUAUCUUAUUUCCAGAAGGCGAAUAAU [salish99_ss1_r3_088] (puzzle: Same State 1)
- apparent KD of MS2 coat protein [3]: 131 nM

Sequence: UUGAAGAAUUAAGGAUAUUGAGUACAUAUGUUUAACAUGAGGAUCACCCAUGUGGGUUGCGGUAUCGAGAAGGUAAAUUAAUAG [Mat - same State NG 2 - JL mod - D66] (Eterna round: R96, puzzle: Same State NG 2)
- apparent KD of MS2 coat protein (input ligand: FMN 200 uM): 94.4 nM
- apparent KD of MS2 coat protein [1]: 126 nM
- apparent KD of MS2 coat protein (input ligand: none): 157 nM

Sequence: UAACGCGCAUGCAAGGAUAUGUGCAGAGCUACAUGAGGAUCACCCAUGUGGUUAUGCUAUUGAAAACAGAAGGUGCCCUCGCUCA [Ceties] (Eterna round: R96, puzzle: Same State 2)
- apparent KD of MS2 coat protein (input ligand: FMN 200 uM): 20.7 nM
- apparent KD of MS2 coat protein [1]: 16.4 nM
- apparent KD of MS2 coat protein (input ligand: none): 22.7 nM

Sequence: GGAGCCGGCACCGAGGAUAUUCAUAUUAAAACAUGAGGAUCACCCAUGUACCGGAGAACCGGUUGGGAGAAGGCGGAUCGGCUCG [Xeonanis - 24] (puzzle: Same State 2)
- apparent KD of MS2 coat protein [2]: 35.4 nM
- apparent KD of MS2 coat protein [3]: 333 nM
- apparent KD of MS2 coat protein [4]: 596 nM

Sequence: UGUUGUAUUACAGGAUAUCUAGUAUUUAUAUUUAGAGAAGGGUAUUCACAUGAGGAUCACCCAUGUAUAUACGAGGAAGUUGUG [JMF's solution 41] (Eterna round: R96, puzzle: Same State NG 1)
- apparent KD of MS2 coat protein [1]: 36.9 nM

Sequence: AGAGAGGAAGCUGAGGAUAUCGUAAGGAGGACAUGAGGAUCACCCAUGUGUGUGGAAUUGGAGGACGAGAAGGCAGAGGAGUGGG [JR_SS2_Sub055] (puzzle: Same State 2)
- apparent KD of MS2 coat protein [2]: 33 nM
- apparent KD of MS2 coat protein [3]: 35.2 nM
- apparent KD of MS2 coat protein [4]: 34.6 nM

Sequence: CGUCCGGCCUGUGCUGGCCGGUGGCUUGUACAUGAGGAUCACCCAUGUUCUUGUGCUGGCUUUUUGCUCGUCUUGUG [salish99_mir208a_021] (puzzle: Sensor for hsa-mir-208a)
- apparent KD of MS2 coat protein [2]: 37 nM
- apparent KD of MS2 coat protein [3]: 18.9 nM
- apparent KD of MS2 coat protein [4]: 43.8 nM

Sequence: UGUUGUAUUACAGGAUAUCUAUGAUUAUUAUUUAGAGAAGGGUAUUCACAUGAGGAUCACCCAUGUAUAUACGAGGAAGUUGUG [JMF's solution 59] (Eterna round: R96, puzzle: Same State NG 1)
- apparent KD of MS2 coat protein [1]: 31.2 nM

Sequence: AAUCAACGCCGAGGAUAUCGGCCUACAUGAGGAUCACCCAUGUUGGGACAUAAAUUAAUCUCGGCUGAGAAGGCGGGAGUUGAC [Eternabot solution 38] (Eterna round: R96, puzzle: Same State NG 2)
- apparent KD of MS2 coat protein (input ligand: FMN 200 uM): 23 nM
- apparent KD of MS2 coat protein [1]: 13.3 nM
- apparent KD of MS2 coat protein (input ligand: none): 19.9 nM

Sequence: GGCGUAUAAACAUGAGGAUCACCCAUGUUGCGGAGACGCAAUGAGGAUAUCGAUGGGUUUCCCGUCGAGAAGGCGUGGGUCGCC [JL SSNG3 3.95] (Eterna round: R96, puzzle: Same State NG 3)
- apparent KD of MS2 coat protein (input ligand: FMN 200 uM): 22.3 nM
- apparent KD of MS2 coat protein [1]: 24.6 nM
- apparent KD of MS2 coat protein (input ligand: none): 40.2 nM

Sequence: AGCUAGUACCGAGGAUAUACGUACAUGAGGAUCACCCAUGUAUACAUGGUUUAAUGAAACUACAUGUAGAAGGCGGUACUAGCA [Mat - Same State NG 2 - JL mod - D51] (Eterna round: R96, puzzle: Same State NG 2)
- apparent KD of MS2 coat protein (input ligand: FMN 200 uM): 23.2 nM
- apparent KD of MS2 coat protein [1]: 157 nM
- apparent KD of MS2 coat protein (input ligand: none): 348 nM

Sequence: GGAAUCUCCAGAGAGGAUAUGCGGCGUUAAACAUGAGGAUCACCCAUGUCCUUCGAAUGGGUAACGCAGAAGGCUCUACGGUUCC [Shapeless] (puzzle: Same State 2)
- apparent KD of MS2 coat protein [2]: 115 nM
- apparent KD of MS2 coat protein [3]: 594 nM
- apparent KD of MS2 coat protein [4]: 1220 nM

Sequence: GUUAAACAUGAGGAUCACCCAUGUCAAUGUAGUCGAGGAUAUGGGCAGCUAUGAGGCGUACUAGAAGGCGAUGAGU [Mat - Same State 1 - Mod of JL - D14] (puzzle: Same State 1)
- apparent KD of MS2 coat protein [2]: 38.6 nM
- apparent KD of MS2 coat protein [3]: 133 nM
- apparent KD of MS2 coat protein [4]: 150 nM

Sequence: GCUUGCGGCGCAGGAUAUGGGUGCCUGUACAUGAGGAUCACCCAUGUUAAGGGACGGAUUACGAACCAGAAGGGCGUGGCGGGC [Ceerce] (Eterna round: R96, puzzle: Same State NG 2)
- apparent KD of MS2 coat protein (input ligand: FMN 200 uM): 47.8 nM
- apparent KD of MS2 coat protein [1]: 108 nM
- apparent KD of MS2 coat protein (input ligand: none): 430 nM
